This is an account of results in article PMC11185801 (bioRxiv, 2024).

The series deals with the molecule itself. The experiment in a line: cryo-EM structure.

Positions count from the first letter of the chain named. Names may count otherwise.

B1: human Kir7.1 R162Q mutant (natural protein)
chain: MDSSNCKVIAPLLSQRYRRMVTKDGHSTLQMDGAQRGLAYLRDAWGILMDMRWRWMMLVFSASFVVHWLVFAVLWYVLAEMNGDLELDHDAPPENHTICVKYITSFTAAFSFSLETQLTIGYGTMFPSGDCPSAIALLAIQMLLGLMLEAFITGAFVAKIAQPKNRAFSIRFTDTAVVAHMDGKPNLIFQVANTRPSPLTSVRVSAVLYQERENGKLYQTSVDFHLDGISSDECPFFIFPLTYYHSITPSSPLATLLQHENPSHFELVVFLSAMQEGTGEICQRRTSYLPSEIMLHHCFASLLTRGSKGEYQIKMENFDKTVPEFPTPLVSKSPNRTDLDIHINGQSIDNFQISETGLTE
As for B1, the “stoichiometry N” value worked out at 4.

B2: human Kir7.1 E276A mutant (natural protein)
chain: B1 chain with Q162R, E276A
Take B2: the “stoichiometry N” value came to 4.

For orientation: stoichiometry N means the number of molecules, sites or subunits per partner or assembly.
